The target in this assay is GST-Ana2 phosphorylated by active Plk4 (MBP-Plk4) (Drosophila) (UniProt Q9XZ31). Put plainly: pull-down; recombinant GST-Ana2 (or its fragments or mutants) on beads, incubated with active MBP-Plk4 or inactive MBP-Plk4^KD, then with ^35S-Met-labeled proteins made by in vitro transcription and translation; SDS-PAGE and autoradiography.
UniProt Q9XZ31, sequence (Q9XZ31 entry or part of it): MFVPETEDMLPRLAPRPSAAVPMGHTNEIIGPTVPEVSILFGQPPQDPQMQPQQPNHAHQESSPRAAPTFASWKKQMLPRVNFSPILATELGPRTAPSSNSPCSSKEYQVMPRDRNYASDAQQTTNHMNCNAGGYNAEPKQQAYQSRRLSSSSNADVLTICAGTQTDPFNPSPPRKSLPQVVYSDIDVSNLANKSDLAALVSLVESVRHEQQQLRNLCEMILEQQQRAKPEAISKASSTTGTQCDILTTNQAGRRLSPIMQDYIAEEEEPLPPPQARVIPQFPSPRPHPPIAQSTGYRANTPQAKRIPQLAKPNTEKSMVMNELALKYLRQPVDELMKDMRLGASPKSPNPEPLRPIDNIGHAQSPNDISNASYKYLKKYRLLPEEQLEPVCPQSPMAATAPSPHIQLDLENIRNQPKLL

For the substance “^35S-Met-labeled Bld10 (natural protein)”, the fold increase of binding against Ana2 treated with inactive Plk4 is 3.5 fold.

(Values after PMC4229625.)
